What was measured:
rhesus serum albumin [1] = biological target: T1, rhesus serum albumin (rhesus, UniProt Q28522 17-600); test: SPR, albumin immobilized, acetate pH 5.5
T1 construct: also called RhSA; Rh-SA

human serum albumin [2] = biological target: T2, human serum albumin (human, UniProt P02768 25-609); test: SPR, albumin immobilized, acetate pH 5.5
T2 construct: immobilized on chips or coated on plates elsewhere; also called HSA; HuSA

mouse serum albumin [3] = biological target: T3, mouse serum albumin (mouse, UniProt P07724 25-608); test: SPR, albumin immobilized, acetate pH 5.5
T3 construct: also called MSA; MuSA

rhesus serum albumin [4] = biological target: T1, rhesus serum albumin; test: SPR, albumin immobilized, Adnectin 250 nM
human serum albumin [5] = biological target: T2, human serum albumin; test: SPR, albumin immobilized, Adnectin 250 nM
rat serum albumin [6] = biological target: T4, rat serum albumin (rat, UniProt P02770 25-608); test: SPR, albumin immobilized, Adnectin 250 nM
T4 construct: also called Rat SA; RSA

mouse serum albumin [7] = biological target: T3, mouse serum albumin; test: SPR, albumin immobilized, Adnectin 250 nM
domain III of HSA = biological target: T5, domain III of HSA (human, UniProt P02768 405-609, limits assumed); test: SPR on HSA domains
T5 construct: domain: III; also called HuSA domainIII

domain I of HSA = biological target: T6, domain I of HSA (human, UniProt P02768 25-221, limits assumed); test: SPR on HSA domains
T6 construct: domain: I; also called HSA domain I

rhesus serum albumin [8] = biological target: T1, rhesus serum albumin; test: SPR, albumin immobilized, HBSP pH 7.4
human serum albumin [9] = biological target: T2, human serum albumin; test: SPR, albumin immobilized, HBSP pH 7.4
mouse serum albumin [10] = biological target: T3, mouse serum albumin; test: SPR, albumin immobilized, HBSP pH 7.4
rhesus serum albumin [11] = biological target: T1, rhesus serum albumin; test: SPR, albumin immobilized, acetate pH 5.5; remark: listed apart in the source
human serum albumin [12] = biological target: T2, human serum albumin; test: SPR, albumin immobilized, acetate pH 5.5; remark: listed apart in the source
mouse serum albumin [13] = biological target: T3, mouse serum albumin; test: SPR, albumin immobilized, acetate pH 5.5; remark: listed apart in the source
rhesus serum albumin [14] = biological target: T1, rhesus serum albumin; test: direct binding ELISA, albumin coated
Experimental: (§1) Cross-species albumin binding was determined using the ELISA method described above.

human serum albumin [15] = biological target: T2, human serum albumin; test: direct binding ELISA, albumin coated
Experimental: as §1

mouse serum albumin [16] = biological target: T3, mouse serum albumin; test: direct binding ELISA, albumin coated
Experimental: as §1

rhesus serum albumin [17] = biological target: T1, rhesus serum albumin; test: SPR, albumin immobilized
Experimental: (§2) To determine the kinetics of binding to human, rhesus, and mouse serum albumin, as well as whether binding was retained at both physiological and endosomal pHs, the respective serum albumins were immobilized on a Biacore CMS chip to a surface density of ˜1200 RU using standard NHS/EDC coupling. […] Kinetic measurements were carried out using a 3 min association and 6-10 min dissociation phase. Kinetic traces of reference-subtracted sensorgrams were fit to a 1:1 binding model using the Biaevaluation software.
(§3) In addition, binding to albumin was carried out under various pH conditions ranging from pH 5.5 to pH 7.4.

human serum albumin [18] = biological target: T2, human serum albumin; test: SPR, albumin immobilized
Experimental: as §2, §3

rat serum albumin [19] = biological target: T4, rat serum albumin; test: SPR, albumin immobilized;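 note: biacore CM5 surface plasmon resonance with serum albumin coupled to the chip, 3 min association then 6-10 min dissociation, rates from a 1:1 model fit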
Experimental: as §2, §3

mouse serum albumin [20] = biological target: T3, mouse serum albumin; test: SPR, albumin immobilized
Experimental: as §2, §3

cynomolgus serum albumin = biological target: T7, cynomolgus serum albumin (cynomolgus, UniProt A2V9Z4 25-608); test: SPR, albumin immobilized;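 note: biacore CM5 surface plasmon resonance with serum albumin coupled to the chip, 3 min association then 6-10 min dissociation, rates from a 1:1 model fit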
T7 construct: also called cynoSA; CySA
Experimental: as §2, §3

rhesus serum albumin [21] = biological target: T1, rhesus serum albumin; test: SPR, albumin immobilized; remark: listed apart in the source
Experimental: as §2

human serum albumin [22] = biological target: T2, human serum albumin; test: SPR, albumin immobilized; remark: listed apart in the source
Experimental: as §2

mouse serum albumin [23] = biological target: T3, mouse serum albumin; test: SPR, albumin immobilized; remark: listed apart in the source
Experimental: as §2

rhesus serum albumin [24] = biological target: T1, rhesus serum albumin; test: SPR, albumin immobilized, acetate pH 7.4
mouse serum albumin [25] = biological target: T3, mouse serum albumin; test: SPR, albumin immobilized, acetate pH 7.4
human serum albumin [26] = biological target: T2, human serum albumin; test: direct binding ELISA on coated HSA, mono-Adnectin (column HSA EC50 (nM))
human PCSK9 = biological target: T8, human PCSK9 (human, UniProt Q8NBP7 31-692); test: SPR, dual injection on immobilized albumin
T8 construct: also called hPCSK9; huPCSK9

T3 sequence (P07724 25-608 limits assumed): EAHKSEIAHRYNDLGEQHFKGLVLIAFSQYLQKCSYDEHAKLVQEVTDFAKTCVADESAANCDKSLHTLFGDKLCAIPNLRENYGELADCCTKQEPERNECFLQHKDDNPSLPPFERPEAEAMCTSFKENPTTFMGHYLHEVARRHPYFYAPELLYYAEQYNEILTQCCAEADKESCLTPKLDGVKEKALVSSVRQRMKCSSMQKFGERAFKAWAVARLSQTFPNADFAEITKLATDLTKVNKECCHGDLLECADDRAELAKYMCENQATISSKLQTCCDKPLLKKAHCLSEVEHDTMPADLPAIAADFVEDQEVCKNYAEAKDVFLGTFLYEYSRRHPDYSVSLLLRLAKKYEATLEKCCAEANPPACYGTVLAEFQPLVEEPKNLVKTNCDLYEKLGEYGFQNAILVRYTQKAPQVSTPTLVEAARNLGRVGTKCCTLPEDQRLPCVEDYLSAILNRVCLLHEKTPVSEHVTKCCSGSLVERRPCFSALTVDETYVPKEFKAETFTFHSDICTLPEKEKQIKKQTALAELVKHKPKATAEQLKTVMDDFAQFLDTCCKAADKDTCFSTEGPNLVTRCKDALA
T4 sequence (P02770 25-608 limits assumed): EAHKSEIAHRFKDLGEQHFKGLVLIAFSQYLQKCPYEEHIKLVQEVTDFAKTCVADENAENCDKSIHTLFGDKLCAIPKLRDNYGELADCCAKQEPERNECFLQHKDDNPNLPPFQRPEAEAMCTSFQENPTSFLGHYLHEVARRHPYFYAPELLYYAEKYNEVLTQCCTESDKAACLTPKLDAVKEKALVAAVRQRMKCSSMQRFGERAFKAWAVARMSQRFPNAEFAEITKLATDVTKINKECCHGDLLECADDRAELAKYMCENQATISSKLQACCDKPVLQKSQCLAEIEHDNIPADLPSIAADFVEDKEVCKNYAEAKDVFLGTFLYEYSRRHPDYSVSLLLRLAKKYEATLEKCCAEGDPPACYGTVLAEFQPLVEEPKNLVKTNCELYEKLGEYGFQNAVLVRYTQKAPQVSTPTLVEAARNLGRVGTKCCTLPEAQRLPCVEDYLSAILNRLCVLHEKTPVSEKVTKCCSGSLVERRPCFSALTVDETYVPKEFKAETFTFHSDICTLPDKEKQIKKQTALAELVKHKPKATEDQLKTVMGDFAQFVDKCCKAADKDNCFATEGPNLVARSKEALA
T1 sequence (Q28522 17-600 limits assumed): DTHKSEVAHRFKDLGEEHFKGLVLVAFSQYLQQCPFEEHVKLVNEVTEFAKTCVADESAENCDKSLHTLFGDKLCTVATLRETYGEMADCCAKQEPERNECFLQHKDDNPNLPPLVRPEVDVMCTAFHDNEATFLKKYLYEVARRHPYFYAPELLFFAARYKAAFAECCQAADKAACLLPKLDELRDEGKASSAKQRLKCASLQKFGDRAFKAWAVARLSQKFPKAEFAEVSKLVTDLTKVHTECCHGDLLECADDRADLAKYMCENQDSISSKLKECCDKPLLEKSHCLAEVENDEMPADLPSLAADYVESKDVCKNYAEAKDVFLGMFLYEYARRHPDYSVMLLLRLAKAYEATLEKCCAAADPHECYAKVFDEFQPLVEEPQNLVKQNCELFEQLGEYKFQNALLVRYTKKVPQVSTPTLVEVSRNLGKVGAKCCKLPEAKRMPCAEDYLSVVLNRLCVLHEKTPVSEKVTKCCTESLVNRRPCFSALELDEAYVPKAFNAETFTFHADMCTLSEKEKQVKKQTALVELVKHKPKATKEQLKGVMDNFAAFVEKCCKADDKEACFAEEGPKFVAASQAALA
T7 sequence (A2V9Z4 25-608 limits assumed): as the sequence (Q28522 17-600 limits assumed) above

B1: PKE2 Adnectin 2629_E06 (designed binder)
chain: MGVSDVPRDLEVVAATPTSLLISWDAPAVTVRYYRITYGREVQKYSDLGPLYIYQEFTVPGSKSTATISGLKPGVDYTITVYAVTGSGESPASSKPISINYRTEIDKPSQHHHHHH
notes: 10Fn3 domain with modified CD loop; the entry includes the His6 tail; also called ADX_2629_E06
- Kd (rhesus serum albumin [1]): 12 nM
- koff (rhesus serum albumin [1]): 0.000584 s⁻¹
- kon (rhesus serum albumin [1]): 48500 M⁻¹ s⁻¹
- Kd (human serum albumin [2]): 4.64 nM
- koff (human serum albumin [2]): 0.000326 s⁻¹
- kon (human serum albumin [2]): 70400 M⁻¹ s⁻¹
- Kd (mouse serum albumin [3]): 14.9 nM
- koff (mouse serum albumin [3]): 0.00125 s⁻¹
- kon (mouse serum albumin [3]): 84000 M⁻¹ s⁻¹
- koff (rhesus serum albumin [4]): 0.000219 s⁻¹
- koff (human serum albumin [5]): 0.000169 s⁻¹
- koff (rat serum albumin [6]): 0.000767 s⁻¹
- koff (mouse serum albumin [7]): 0.000401 s⁻¹
- binding result (domain III of HSA): no binding
- binding result (domain I of HSA): no binding
- Kd (rhesus serum albumin [8]): 12.7 nM
- koff (rhesus serum albumin [8]): 0.000276 s⁻¹
- kon (rhesus serum albumin [8]): 21800 M⁻¹ s⁻¹
- Kd (human serum albumin [9]): 10.6 nM
- koff (human serum albumin [9]): 0.000219 s⁻¹
- kon (human serum albumin [9]): 20700 M⁻¹ s⁻¹
- Kd (mouse serum albumin [10]): 3.43 nM
- koff (mouse serum albumin [10]): 0.000272 s⁻¹
- kon (mouse serum albumin [10]): 79100 M⁻¹ s⁻¹
- Kd (rhesus serum albumin [11]): 11.2 nM
- koff (rhesus serum albumin [11]): 0.000503 s⁻¹
- kon (rhesus serum albumin [11]): 44900 M⁻¹ s⁻¹
- Kd (human serum albumin [12]): 4.1 nM
- koff (human serum albumin [12]): 0.000287 s⁻¹
- kon (human serum albumin [12]): 70700 M⁻¹ s⁻¹
- Kd (mouse serum albumin [13]): 14.6 nM
- koff (mouse serum albumin [13]): 0.00113 s⁻¹
- kon (mouse serum albumin [13]): 77000 M⁻¹ s⁻¹
- EC50 (rhesus serum albumin [14]): 10.5 nM
- EC50 (human serum albumin [15]): 14.5 nM
- EC50 (mouse serum albumin [16]): 2.8 nM
- Kd (rhesus serum albumin [17]): 3.4 nM
- koff (rhesus serum albumin [17]): 0.00024 s⁻¹
- kon (rhesus serum albumin [17]): 73900 M⁻¹ s⁻¹
- Kd (human serum albumin [18]): 3.2 nM
- koff (human serum albumin [18]): 0.000185 s⁻¹
- kon (human serum albumin [18]): 61000 M⁻¹ s⁻¹
- Kd (rat serum albumin [19]): 12.8 nM
- koff (rat serum albumin [19]): 0.00126 s⁻¹
- kon (rat serum albumin [19]): 99700 M⁻¹ s⁻¹
- Kd (mouse serum albumin [20]): 2.4 nM
- koff (mouse serum albumin [20]): 0.000531 s⁻¹
- kon (mouse serum albumin [20]): 219000 M⁻¹ s⁻¹
- Kd (cynomolgus serum albumin): 3.2 nM
- koff (cynomolgus serum albumin): 0.000229 s⁻¹
- kon (cynomolgus serum albumin): 73700 M⁻¹ s⁻¹
- Kd (rhesus serum albumin [21]): 14.5 nM
- koff (rhesus serum albumin [21]): 0.000283 s⁻¹
- kon (rhesus serum albumin [21]): 19500 M⁻¹ s⁻¹
- Kd (human serum albumin [22]): 12.3 nM
- koff (human serum albumin [22]): 0.000213 s⁻¹
- kon (human serum albumin [22]): 17400 M⁻¹ s⁻¹
- Kd (mouse serum albumin [23]): 3.6 nM
- koff (mouse serum albumin [23]): 0.000242 s⁻¹
- kon (mouse serum albumin [23]): 68400 M⁻¹ s⁻¹
- Kd (rhesus serum albumin [24]): 11.8 nM
- koff (rhesus serum albumin [24]): 0.000328 s⁻¹
- kon (rhesus serum albumin [24]): 27900 M⁻¹ s⁻¹
- Kd (mouse serum albumin [25]): 3.48 nM
- koff (mouse serum albumin [25]): 0.000268 s⁻¹
- kon (mouse serum albumin [25]): 76800 M⁻¹ s⁻¹
- EC50 (human serum albumin [26]): 20 nM
- binding result (human PCSK9): no binding

Source: patent publication US20200048328A1 (Bristol-Myers Squibb, published 2020)
